Paper PMC6581175, “Versatile Oxidase and Dehydrogenase Activities of Bacterial Pyranose 2-Oxidase Facilitate Redox Cycling with Manganese Peroxidase In Vitro” (Applied and Environmental Microbiology, 2019)

Tests used:
[1] = system: CCn1c(=N[N]c2sc3cc(S(=O)(=O)O)ccc3[n+]2CC)sc2cc(S(=O)(=O)O)ccc21; test: purified protein; conditions: pH 7.5; 30.0 °C
KaPOx = biological target: T1, KaPOx (Kitasatospora aureofaciens, UniProt A0A1E7NAU4); test: spectrophotometric electron acceptor reduction; conditions: apparent, 30 mM D-glucose, nitrogen-bubbled solutions, 50 mM Britton-Robinson pH 7.5, 30°C, kcat per dimer
T1 construct: gene HS99_0024835
T1 sequence (A0A1E7NAU4 1-545): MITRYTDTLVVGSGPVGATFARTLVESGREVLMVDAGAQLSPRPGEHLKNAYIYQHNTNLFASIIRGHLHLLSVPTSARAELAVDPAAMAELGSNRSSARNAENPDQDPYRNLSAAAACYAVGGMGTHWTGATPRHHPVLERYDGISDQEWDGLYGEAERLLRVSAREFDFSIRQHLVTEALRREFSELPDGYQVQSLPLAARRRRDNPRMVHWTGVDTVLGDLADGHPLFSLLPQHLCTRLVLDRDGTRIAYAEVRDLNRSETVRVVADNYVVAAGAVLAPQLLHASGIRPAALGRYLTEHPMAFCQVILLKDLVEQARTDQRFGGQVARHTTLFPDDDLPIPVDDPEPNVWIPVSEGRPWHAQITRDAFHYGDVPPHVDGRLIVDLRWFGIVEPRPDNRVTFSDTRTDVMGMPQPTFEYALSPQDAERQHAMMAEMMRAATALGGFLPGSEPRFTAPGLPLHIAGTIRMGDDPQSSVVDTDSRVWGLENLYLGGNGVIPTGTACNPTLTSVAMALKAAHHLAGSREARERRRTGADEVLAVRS

purified protein [2] = substrate: O=C1O[C@H](CO)[C@@H](O)[C@H](O)[C@H]1O; test: purified protein; assay type: biochemical, Kitasatospora aureofaciens; conditions: apparent, electron donor, O2 at air saturation (about 250 uM), 50 mM Britton-Robinson pH 7.5, 30°C, kcat per dimer
purified protein [3] = substrate: O=C1C=CC(=O)C=C1; test: purified protein; conditions: apparent, electron acceptor, 30 mM D-glucose, nitrogen-bubbled solutions, 50 mM Britton-Robinson pH 7.5, 30°C, kcat per dimer
purified protein [4] = substrate: O=C1C(Cl)=CC(=Nc2ccc(O)cc2)C=C1Cl; test: purified protein; conditions: apparent, electron acceptor, 30 mM D-glucose, nitrogen-bubbled solutions, 50 mM Britton-Robinson pH 7.5, 30°C, kcat per dimer

KaPOx (Kitasatospora aureofaciens)
Km [1]: 40 ± 0 µM
Vmax [1]: 6.1 µmol/min/mg
kcat/Km [1]: 309000 M⁻¹ s⁻¹

Ferrocenium ion
Km (KaPOx): 1030 ± 1000 µM

B1: KaPOx (Kitasatospora aureofaciens) (protein)
chain: MITRYTDTLVVGSGPVGATFARTLVESGREVLMVDAGAQLSPRPGEHLKNAYIYQHNTNLFASIIRGHLHLLSVPTSARAELAVDPAAMAELGSNRSSARNAENPDQDPYRNLSAAAACYAVGGMGTHWTGATPRHHPVLERYDGISDQEWDGLYGEAERLLRVSAREFDFSIRQHLVTEALRREFSELPDGYQVQSLPLAARRRRDNPRMVHWTGVDTVLGDLADGHPLFSLLPQHLCTRLVLDRDGTRIAYAEVRDLNRSETVRVVADNYVVAAGAVLAPQLLHASGIRPAALGRYLTEHPMAFCQVILLKDLVEQARTDQRFGGQVARHTTLFPDDDLPIPVDDPEPNVWIPVSEGRPWHAQITRDAFHYGDVPPHVDGRLIVDLRWFGIVEPRPDNRVTFSDTRTDVMGMPQPTFEYALSPQDAERQHAMMAEMMRAATALGGFLPGSEPRFTAPGLPLHIAGTIRMGDDPQSSVVDTDSRVWGLENLYLGGNGVIPTGTACNPTLTSVAMALKAAHHLAGSREARERRRTGADEVLAVRS
notes: full-length synthetic gene, C-terminal 6xHis kept, N-terminal T7 tag excluded, pET-21b(+), E. coli T7 Express; no signal peptide predicted
Km (purified protein [2]): 28700 ± 2400 µM
Vmax (purified protein [2]): 0.8 µmol/min/mg
kcat (purified protein [2]): 1.8 ± 0.1 s⁻¹
kcat/Km (purified protein [2]): 60 M⁻¹ s⁻¹
Km (purified protein [3]): 80 ± 100 µM
Vmax (purified protein [3]): 12.2 µmol/min/mg
kcat (purified protein [3]): 24.9 ± 7.1 s⁻¹
kcat/Km (purified protein [3]): 311000 M⁻¹ s⁻¹
Km (purified protein [4]): 30 ± 0 µM
Vmax (purified protein [4]): 4.4 µmol/min/mg
kcat (purified protein [4]): 9.4 ± 1.1 s⁻¹
kcat/Km (purified protein [4]): 313000 M⁻¹ s⁻¹
